Read-outs that look alike come from different tables or passages of the source.

Here are results for 18 molecules from patent publication US20200347127A1 (CRESCENDO BIOLOGICS, published 2020).

In assay [1] the target is T1, recombinant human IL-17A (human, UniProt Q16552 24-155). In words: cell-based or functional assay.
Assay [2] addresses T1, recombinant human IL-17A. In words: competition ELISA, IL-17A binding to coated IL-17RA-Fc.
Protocol: Following washing of excess coating antigen, as described above, the wells of the plate were incubated with 3% skimmed milk powder/PBS to block non-specific protein interactions. […] The mixture was then transferred to the assay plate and incubated for 1 hour at room temperature.
Where appropriate, curve fitting in PRISM was used to determine the EC₅₀ of inhibiting VH.
In assay [3] the target is T1, recombinant human IL-17A. Briefly: SPR (BIAcore T200), IL-17A coupled to CM5 chip, single-cycle kinetics.
Protocol: (§1) VH binding kinetics were then determined from the (blank subtracted) sensorgram traces using 1:1 binding models and BIAevaluation software.
Assay [4] concerns the target T1, recombinant human IL-17A. Briefly: cell-based or functional assay. The source holds these as a separate data set.
For assay [5], the target named is T1, recombinant human IL-17A. In words: SPR (BIAcore T200), IL-17A coupled to CM5 chip, single-cycle kinetics. This is another data set of the same source.
Protocol: as §1
In assay [6] the target is T1, recombinant human IL-17A. Briefly: BIAcore single-cycle kinetics on immobilised IL-17A, 1:1 binding fit.
Protocol: as §1

T1 sequence (Q16552 24-155): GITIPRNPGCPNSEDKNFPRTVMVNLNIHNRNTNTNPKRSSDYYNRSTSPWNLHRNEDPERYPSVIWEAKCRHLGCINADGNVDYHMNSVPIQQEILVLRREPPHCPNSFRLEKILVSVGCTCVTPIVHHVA

B1: Clone 3.11 (VHH)
VHH: QVQLVQSGAEVKKPGASVKVSCKASGYNFDAYHINWVRQAPGQGLEWMGSIKPNSGATKYAQKFQGRVTITRDTSISTAYMELSRLRSDDTAVYYCASLDRDTWYPHSYFGWFDSWGQGTLVTVSS
notes: Human single VH domain
In the case of B1, in the assay with recombinant human IL-17A [1], the “Cell assay IC50 (nM), IL-17A-induced IL6 release from HT1080” value (“Cell assay IC50 (nM)” below) was determined as 17 nM. The IC50 with recombinant human IL-17A [2] is 8 nM. In the assay with recombinant human IL-17A [3], the dissociation constant (Kd) was determined as 0.44 nM, the koff was determined as 0.000237 s⁻¹ and the on-rate (kon) worked out at 538000 M⁻¹ s⁻¹.

B2: Clone 3.9 (VHH)
VHH: QVQLVQSGAEVKKPGASVKVSCKASGYNFDAYHINWVRQAPGQGLEWMGSIKPNSGATKYAQKFQGRVTITRDTSISTAYMELSRLRSDDTAVYYCASMDRDYYDTSGYFGWFDSWGQGTLVTVSS
notes: Human single VH domain
Consider B2, for which, in the assay with recombinant human IL-17A [1], the “Cell assay IC50 (nM)” value was 182 nM. Also, the concentration for half-maximal inhibition (IC50) with recombinant human IL-17A [2] was determined as 43 nM. Further, in the assay with recombinant human IL-17A [3], the Kd was determined as 21 nM, the koff turned out to be 0.00201 s⁻¹ and the on-rate (kon) was determined as 96400 M⁻¹ s⁻¹.

B3: Clone 3.13 (VHH)
VHH: QVQLVQSGAEVKKPGASVKVSCKASGYNFDAYHINWVRQAPGQGLEWMGSIKPNSGATKYAQKFQGRVTITRDTSISTAYMELSRLRSDDTAVYYCASLDRDTWYPHSYAGWFDSWGQGTLVTVSS
notes: Human single VH domain
For B3, the “Cell assay IC50 (nM)” value with recombinant human IL-17A [1] was determined as 5 nM. The IC50 with recombinant human IL-17A [2] worked out at 2 nM. Further, in the assay with recombinant human IL-17A [3], the Kd is 0.197 nM, the dissociation rate constant (koff) came to 0.000201 s⁻¹ and the kon came to 1.02e+06 M⁻¹ s⁻¹.

B4: Clone 1.8 (VHH)
VHH: QVQLVESGGGLVQPGGSLRLSCAASGFTFSSYGMYWVRQAPGKGLEWVAKIEQDGSEKYYVDSVKGRFTISRDNAKNSLFLQMNSLRAEDTAVYYCAKGEILPLYFDYWGQGTLVTVSS
notes: Human single VH domain
B4: the “Cell assay IC50 (nM)” value with recombinant human IL-17A [4] worked out at 1.2 nM. Besides, in the assay with recombinant human IL-17A [5], the Kd amounted to 0.616 nM, the koff is 0.000429 s⁻¹ and the kon is 697000 M⁻¹ s⁻¹.

B5: VH 1.2.2 (+HIS) (VHH)
VHH: EVQLVESGGGLVQPGGSLRLSCAASGFTFSSYSMYWVRQAPGKGLEWVAEIKQDGSVQYYVSDVKGRFTISRDNAKNSLYLQMNSLRAEDTAVYYCAKGEILPLYFDYWGQGTLVTVSS
notes: also called 1.2.2 (clone 1.2 with C terminal extension and His tag)
In the case of B5, in the assay with recombinant human IL-17A [6], the Kd came out at 0.55 nM, the koff worked out at 0.000485 s⁻¹ and the kon stood at 874000 M⁻¹ s⁻¹.

B6: Clone 1.12 (VHH)
VHH: QVQLVESGGGLVQPGGSLRLSCAASGFTFSSYGMYWVRQAPGKGLEWVAKIEQDGSEEYYVDSVKGRFTISRDNAKNSLYLQMNSLRAEDTAVYYCAKGEILPLYFDYWGQGTLVTVSS
notes: Human single VH domain
On to B6, for which, in the assay with recombinant human IL-17A [4], the “Cell assay IC50 (nM)” value came out at 1.4 nM. Besides, in the assay with recombinant human IL-17A [5], the Kd was 0.724 nM, the dissociation rate constant (koff) turned out to be 0.00053 s⁻¹ and the kon is 732000 M⁻¹ s⁻¹.

B7: Clone 1.22 (VHH)
VHH: EVQLVESGGGLVRPGGSLRLSCAASGFTFSSYGMYWVRQAPGKGLEWVAKIEQDGSEEYYVDSVKGRFTISRDNAKKSLYLQMNSLRAEDTAVYYCAKGEILPLYFDYWGQGTLVTVSS
notes: Human single VH domain
In the case of B7, in the assay with recombinant human IL-17A [4], the “Cell assay IC50 (nM)” value is 3.25 nM. Besides, in the assay with recombinant human IL-17A [5], the Kd worked out at 0.223 nM, the off-rate constant (koff) turned out to be 0.000126 s⁻¹ and the association rate constant (kon) is 565000 M⁻¹ s⁻¹.

B8: Clone 1.14 (VHH)
VHH: EVQLVESGGGLVQRGGSLRLSCAASGFTFSSYRMYWVRQAPGKGLEWVASIEQDGSEEYYVDSVKGRFTISRDNAKKSLFLQMNSLRAEDTAVYYCAKGEILPLYFDYWGQGTLVTVSS
notes: Human single VH domain
On to B8, for which, in the assay with recombinant human IL-17A [4], the “Cell assay IC50 (nM)” value stood at 2.9 nM. Besides, in the assay with recombinant human IL-17A [5], the Kd stood at 0.913 nM, the koff stood at 0.000688 s⁻¹ and the on-rate (kon) came out at 753000 M⁻¹ s⁻¹.

B9: VH 1.2.3 (clone 1.2 with C terminal extension) (VHH)
VHH: EVQLVESGGGLVQPGGSLRLSCAASGFTFSSYSMYWVRQAPGKGLEWVAEIKQDGSVQYYVSDVKGRFTISRDNAKNSLYLQMNSLRAEDTAVYYCAKGEILPLYFDYWGQGTLVTVSS
notes: Human single VH domain
In the case of B9, in the assay with recombinant human IL-17A [6], the dissociation constant (Kd) is 0.62 nM, the koff was determined as 0.000465 s⁻¹ and the kon came out at 748000 M⁻¹ s⁻¹.

B10: VH 1.21.1 (clone 1.21 expressed from phagemid vector: with linker residues and His tag) (VHH)
VHH: EVQLVESGGGLVLPGGSLRLSCAASGFTFSSYSMYWVRQAPGKGLEWVAEIKQDGSEQYYVDSVKGRFTISRDNAKNSLYLQMNSLRAEDTAVYYCAKGEILPLYFDYWGQGTLVTVSS
notes: Human single VH domain
On to B10, for which the “Cell assay IC50 (nM)” value in the assay with recombinant human IL-17A [4] was found to be 2.05 nM. In the assay with recombinant human IL-17A [5], the Kd amounted to 0.259 nM, the koff was 0.000205 s⁻¹ and the kon is 792000 M⁻¹ s⁻¹.

B11: VH 1.18.1 (clone 1.18 expressed from phagemid vector: with linker residues and His tag) (VHH)
VHH: EVQLVESGGGLVQPGGSLRLSCAASGFTFSSYSMYWVRQAPGKGLEWVAEIKQDGSVQYYVGGVKGRFTISRDNAKNSLYLQMNSLRAEDTAVYYCAKGEILPLYFDYWGQGTLVTVSS
notes: Human single VH domain
Turning to B11, the “Cell assay IC50 (nM)” value with recombinant human IL-17A [4] turned out to be 1.04 nM. Besides, in the assay with recombinant human IL-17A [5], the equilibrium dissociation constant (Kd) was determined as 0.366 nM, the off-rate constant (koff) was 0.000479 s⁻¹ and the on-rate (kon) was determined as 1.31e+06 M⁻¹ s⁻¹.

B12: VH 1.17.1 (clone 1.17 expressed from phagemid vector: with linker residues and His tag) (VHH)
VHH: EVQLVESGGGLVQPGGSLRLSCAASGFTFSSYSMYWVRQAPGKGLEWVAEIKPTGSVQYYVSDVKGRFTISRDNAKNSLYLQMNSLRAEDTAVYYCAKGEILPLYFDYWGQGTLVTVSS
notes: Human single VH domain
Regarding B12, the “Cell assay IC50 (nM)” value with recombinant human IL-17A [4] worked out at 1.91 nM. In the assay with recombinant human IL-17A [5], the Kd stood at 0.5 nM, the dissociation rate constant (koff) turned out to be 0.000462 s⁻¹ and the kon was determined as 923000 M⁻¹ s⁻¹.

B13: Clone 1.13 (VHH)
VHH: EVQLVESGGGLVQPGGSLRLSCAASGFTFSSYGMYWVRQAPGKGLEWVASIEQDGSEKYYVDSVKGRFTISRDNAKNSLYLQMNSLRAEDTAVYYCAKGEILPLYFDYWGQGTLVTVSS
notes: Human single VH domain
B13: in the assay with recombinant human IL-17A [4], the “Cell assay IC50 (nM)” value was found to be 1.2 nM. In addition, in the assay with recombinant human IL-17A [5], the Kd came to 0.84 nM, the off-rate (koff) was found to be 0.000515 s⁻¹ and the on-rate (kon) was 614000 M⁻¹ s⁻¹.

B14: Clone 1.11 (VHH)
VHH: EVQLVESGGGLVQPGGSLRLSCAASGFTFSSYQMYWVRQAPGKGLEWVASIKQDGSEEYYVDSVKGRFTISRDNAKNSLFLQMNSLRAEDTAVYYCAKGEILPLYFDYWGQGTLVTVSS
notes: Human single VH domain
Consider B14, for which the “Cell assay IC50 (nM)” value in the assay with recombinant human IL-17A [4] was found to be 1.5 nM. In the assay with recombinant human IL-17A [5], the equilibrium dissociation constant (Kd) is 0.845 nM, the koff worked out at 0.000521 s⁻¹ and the kon came out at 617000 M⁻¹ s⁻¹.

B15: Clone 1.9 (VHH)
VHH: QVQLVESGGGLVQPGGSLRLSCAASGFTFSSYGMYWVRQAPGKGLEWVAEIKQDGSEKYYVDSVKGRFTISRDNAKNSLYLQMNSLRAEDTAVYYCAKGEILPLYFDYWGQGTLVTVSS
notes: Human single VH domain
For the molecule B15, the “Cell assay IC50 (nM)” value with recombinant human IL-17A [4] came out at 2.4 nM. For the same molecule, in the assay with recombinant human IL-17A [5], the Kd was determined as 0.529 nM, the off-rate constant (koff) was 0.000464 s⁻¹ and the kon turned out to be 877000 M⁻¹ s⁻¹.

B16: Clone 3.3 (VHH)
VHH: QVQLVQSGAEVKKPGASVKVSCAASGYTFTDYYLHWVRQAPGQGLEWMGWINPNTGTTKYAREFEGRVTMTRDTSISTAYMELSRLRSDDTAVYYCASMDRDYYDTSGYFGWFDSWGQGTLVTVSS
notes: Human single VH domain
With B16, in the assay with recombinant human IL-17A [1], the “Cell assay IC50 (nM)” value was found to be 106 nM. The IC50 in the assay with recombinant human IL-17A [2] amounted to 271 nM. In addition, in the assay with recombinant human IL-17A [3], the Kd worked out at 29 nM, the koff was 0.00285 s⁻¹ and the on-rate (kon) was determined as 99800 M⁻¹ s⁻¹.

B17: Clone 3.5 (VHH)
VHH: QVQLVQSGAEVKKPGASVKVSCAASGYTFTDYYLHWVRQAPGQGLEWMGWINPNTGTTKYAREFEGRVTMTRDTSISTAYMELSRLRSDDTAVYYCASLDRDWRSPNDYFGWFDSWGQGTLVTVSS
notes: Human single VH domain
Regarding B17, the “Cell assay IC50 (nM)” value with recombinant human IL-17A [1] came to 26 nM. The IC50 in the assay with recombinant human IL-17A [2] is 4 nM. For the same molecule, in the assay with recombinant human IL-17A [3], the Kd was 2.2 nM, the koff turned out to be 0.000619 s⁻¹ and the on-rate (kon) was 281000 M⁻¹ s⁻¹.

B18: Clone 3.6 (VHH)
VHH: QVQLVQSGAEVKKPGASVKVSCAASGYTFTDYYLHWVRQAPGQGLEWMGWINPNTGTTKYAREFEGRVTMTRDTSISTAYMELSRLRSDDTAVYYCASLDRDWRSPNDYYGWFDSWGQGTLVTVSS
notes: Human single VH domain
For the molecule B18, the “Cell assay IC50 (nM)” value with recombinant human IL-17A [1] was 28 nM. The IC50 with recombinant human IL-17A [2] was determined as 3 nM. Further, in the assay with recombinant human IL-17A [3], the Kd came out at 0.838 nM, the koff came to 0.00048 s⁻¹ and the kon came to 573000 M⁻¹ s⁻¹.
